Molecular target: T1, Whn (FoxN1) DNA binding domain, WhnDBD (UniProt Q61575 271-367)
T1 sequence: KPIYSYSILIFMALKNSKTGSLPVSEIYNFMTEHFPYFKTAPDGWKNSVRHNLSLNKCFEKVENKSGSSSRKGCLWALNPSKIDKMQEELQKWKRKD
Test: EMSA

B1: MUT (S1P with core CG to TA) (dsDNA)
DNA 1: CTCCTCCCTGCGCGAAGCGGAAGTGATACGAGGCGTAGCGGAAGTT
DNA 2: AACTTCCGCTACGCCTCGTATCACTTCCGCTTCGCGCAGGGAGGAG
binding result: no binding
